Reference: patent US20070243194A1 (Biogen, published 2007)

B1: M13-C06.G4.P.agly (antibody, human IgG4 S228P, kappa, V domains shown)
VH: EVQLLESGGGLVQPGGSLRLSCAASGFTFSIYRMQWVRQAPGKGLEWVSGISPSGGTTWYADSVKGRFTISRDNSKNTLYLQMNSLRAEDTAVYYCARWSGGSGYAFDIWGQGTMVTVSS
VL: DIQMTQSPLSLSASVGDRVTITCQASRDIRNYLNWYQQKPGKAPKLLIYDASSLQTGVPSRFGGSGSGTDFSFTIGSLQPEDIATYYCQQFDSLPHTFGQGTKLEIKR
B2: M14-C03.G4.P.agly (antibody, human IgG4 S228P, kappa, V domains shown)
VH: EVQLLESGGGLVQPGGSLRLSCAASGFTFSKYMMSWVRQAPGKGLEWVSYISPSGGLTWYADSVKGRFTISRDNSKNTLYLQMNSLRAEDTAVYYCARDGARGYGMDVWGQGTTVTVSS
VL: DIQMTQSPATLSLSPGERATLSCRASQSVSSYLAWYQQKPGQAPRLLIYDASNRATGIPARFSGSGSGTDFTLTISSLEPEDFAVYYCQQRSNWPPEVTFGPGTKVDIKR
B3: M14-G11.G4.P (antibody, V domains shown)
VH: EVQLLESGGGLVQPGGSLRLSCAASGFTFSNYPMYWVRQAPGKGLEWVSRISSSGGRTVYADSVKGRFTISRDNSKNTLYLQMNSLRAEDTAVYYCARDRWSRSAAEYGLGGYWGQGTLVTVSS
VL: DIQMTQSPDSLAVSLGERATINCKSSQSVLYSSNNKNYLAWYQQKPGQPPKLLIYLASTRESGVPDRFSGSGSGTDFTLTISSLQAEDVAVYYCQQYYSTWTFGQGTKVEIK

molecular target: human IGF-1R on cells (human, UniProt P08069 31-740; P08069 741-1367); test: cell-based or functional assay
Sequence (P08069 31-740, chain 1 of 2): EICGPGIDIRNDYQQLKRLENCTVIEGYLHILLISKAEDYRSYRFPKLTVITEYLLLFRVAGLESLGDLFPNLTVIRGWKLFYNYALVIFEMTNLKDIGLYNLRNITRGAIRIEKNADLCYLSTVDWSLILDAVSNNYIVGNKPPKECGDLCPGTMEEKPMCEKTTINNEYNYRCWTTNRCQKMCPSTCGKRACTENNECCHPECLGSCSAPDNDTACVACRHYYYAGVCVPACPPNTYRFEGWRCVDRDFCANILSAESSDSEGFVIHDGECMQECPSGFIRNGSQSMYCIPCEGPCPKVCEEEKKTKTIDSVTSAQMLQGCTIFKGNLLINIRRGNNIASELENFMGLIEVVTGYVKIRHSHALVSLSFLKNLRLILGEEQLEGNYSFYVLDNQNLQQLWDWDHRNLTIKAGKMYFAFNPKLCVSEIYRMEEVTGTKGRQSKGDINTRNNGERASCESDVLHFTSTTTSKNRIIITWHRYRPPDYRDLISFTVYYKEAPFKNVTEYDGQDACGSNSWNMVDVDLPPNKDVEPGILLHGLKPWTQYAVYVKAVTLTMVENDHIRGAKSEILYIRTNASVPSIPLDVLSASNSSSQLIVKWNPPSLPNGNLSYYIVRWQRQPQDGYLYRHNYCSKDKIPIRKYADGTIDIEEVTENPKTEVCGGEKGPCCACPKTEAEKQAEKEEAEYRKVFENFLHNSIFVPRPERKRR
Sequence (P08069 741-1367, chain 2 of 2): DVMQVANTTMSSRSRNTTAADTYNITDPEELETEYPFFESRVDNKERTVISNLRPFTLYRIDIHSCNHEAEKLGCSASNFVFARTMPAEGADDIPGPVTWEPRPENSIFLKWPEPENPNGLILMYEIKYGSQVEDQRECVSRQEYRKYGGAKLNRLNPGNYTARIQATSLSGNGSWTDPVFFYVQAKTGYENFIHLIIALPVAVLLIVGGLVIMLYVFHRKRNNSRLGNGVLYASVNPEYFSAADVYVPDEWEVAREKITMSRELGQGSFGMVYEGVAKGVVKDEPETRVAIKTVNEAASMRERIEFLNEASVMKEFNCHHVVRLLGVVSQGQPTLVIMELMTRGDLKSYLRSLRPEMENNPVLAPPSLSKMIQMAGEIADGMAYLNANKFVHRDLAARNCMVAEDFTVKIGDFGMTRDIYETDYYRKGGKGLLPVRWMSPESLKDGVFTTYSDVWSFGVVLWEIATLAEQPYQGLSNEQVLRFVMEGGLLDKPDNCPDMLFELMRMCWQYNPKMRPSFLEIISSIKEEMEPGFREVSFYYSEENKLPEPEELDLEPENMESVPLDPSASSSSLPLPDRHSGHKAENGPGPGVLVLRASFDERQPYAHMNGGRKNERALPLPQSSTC

Row | Binder | inhibition of IGF-1 and IGF-2 mediated IGF-1R receptor phosphorylation, EC50 [nM]
1 | B1 | < 1
2 | B2 | < 1
3 | B3 | < 1
